The target in the experiment is FLAG-DDB1 (UniProt Q16531 1-1140). In words: pull-down.
Sequence of FLAG-DDB1 (Q16531 whole entry): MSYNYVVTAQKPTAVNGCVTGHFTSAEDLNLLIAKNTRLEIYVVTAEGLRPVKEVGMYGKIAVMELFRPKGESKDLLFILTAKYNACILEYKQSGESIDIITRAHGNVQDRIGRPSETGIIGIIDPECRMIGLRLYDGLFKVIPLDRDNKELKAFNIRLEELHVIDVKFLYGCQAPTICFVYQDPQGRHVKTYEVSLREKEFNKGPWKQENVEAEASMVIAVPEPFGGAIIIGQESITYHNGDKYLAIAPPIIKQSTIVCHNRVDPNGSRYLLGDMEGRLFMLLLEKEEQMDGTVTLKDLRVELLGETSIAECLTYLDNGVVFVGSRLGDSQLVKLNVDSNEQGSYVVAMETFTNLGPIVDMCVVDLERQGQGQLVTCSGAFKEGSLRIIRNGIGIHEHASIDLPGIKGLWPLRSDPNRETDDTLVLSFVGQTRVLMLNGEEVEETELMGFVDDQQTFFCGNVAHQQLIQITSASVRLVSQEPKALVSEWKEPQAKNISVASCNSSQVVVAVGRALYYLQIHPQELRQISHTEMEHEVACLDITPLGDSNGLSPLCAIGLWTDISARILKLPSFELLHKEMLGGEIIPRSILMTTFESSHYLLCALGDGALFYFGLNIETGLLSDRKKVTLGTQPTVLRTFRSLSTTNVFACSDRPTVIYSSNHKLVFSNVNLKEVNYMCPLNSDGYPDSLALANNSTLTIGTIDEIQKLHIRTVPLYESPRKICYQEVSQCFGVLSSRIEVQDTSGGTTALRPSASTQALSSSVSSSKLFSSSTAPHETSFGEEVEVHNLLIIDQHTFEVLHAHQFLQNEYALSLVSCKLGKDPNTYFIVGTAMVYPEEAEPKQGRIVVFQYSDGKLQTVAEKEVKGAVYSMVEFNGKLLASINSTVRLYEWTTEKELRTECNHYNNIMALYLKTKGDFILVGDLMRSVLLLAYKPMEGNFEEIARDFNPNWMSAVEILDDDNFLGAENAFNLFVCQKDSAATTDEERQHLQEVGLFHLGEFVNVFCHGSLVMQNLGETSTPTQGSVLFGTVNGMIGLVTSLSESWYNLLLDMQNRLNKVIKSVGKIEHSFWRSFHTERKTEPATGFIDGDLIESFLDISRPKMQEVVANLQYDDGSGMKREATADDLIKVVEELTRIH

B1: GFP-DDB2 (natural protein)
chain: MAPKKRPETQKTSEIVLRPRNKRSRSPLELEPEAKKLCAKGSGPSRRCDSDCLWVGLAGPQILPPCRSIVRTLHQHKLGRASWPSVQQGLQQSFLHTLDSYRILQKAAPFDRRATSLAWHPTHPSTVAVGSKGGDIMLWNFGIKDKPTFIKGIGAGGSITGLKFNPLNTNQFYASSMEGTTRLQDFKGNILRVFASSDTINIWFCSLDVSASSRMVVTGDNVGNVILLNMDGKELWNLRMHKKKVTHVALNPCCDWFLATASVDQTVKIWDLRQVRGKASFLYSLPHRHPVNAACFSPDGARLLTTDQKSEIRVYSASQWDCPLGLIPHPHRHFQHLTPIKAAWHPRYNLIVVGRYPDPNFKSCTPYELRTIDVFDGNSGKMMCQLYDPESSGISSLNEFNPMGDTLASAMGYHILIWSQEEARTRK
For the molecule B1, the binding result is given as “binds”.

The record behind these values is paper PMC5084270 (The Journal of Cell Biology, 2016).
